Data taken from paper PMC9303997.

Assays:
full-length CHMP2A = target: T1, full-length CHMP2A (UniProt O43633)
T1 sequence: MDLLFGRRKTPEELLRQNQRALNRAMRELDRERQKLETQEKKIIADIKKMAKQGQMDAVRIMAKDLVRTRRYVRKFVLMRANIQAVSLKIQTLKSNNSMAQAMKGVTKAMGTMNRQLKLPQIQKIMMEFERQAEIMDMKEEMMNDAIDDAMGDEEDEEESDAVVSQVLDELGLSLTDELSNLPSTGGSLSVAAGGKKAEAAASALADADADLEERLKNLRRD

[1] = target: T2, full-length human CHMP1B with a single cysteine mutation at position 2 (CHMP1B^S2C) (human) (UniProt Q7LBR1)
T2 sequence: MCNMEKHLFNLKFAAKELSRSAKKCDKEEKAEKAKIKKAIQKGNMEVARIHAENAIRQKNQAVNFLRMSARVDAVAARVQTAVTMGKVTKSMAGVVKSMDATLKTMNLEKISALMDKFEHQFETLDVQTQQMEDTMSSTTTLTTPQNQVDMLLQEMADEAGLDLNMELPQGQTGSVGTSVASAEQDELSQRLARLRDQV

B1: Human VPS4B with a single mutation at position 2 for maleimide fluorophore labeling (VPS4B^S2C) (enzyme)
chain: MCSTSPNLQKAIDLASKAAQEDKAGNYEEALQLYQHAVQYFLHVVKYEAQGDKAKQSIRAKCTEYLDRAEKLKEYLKNKEKKAQKPVKEGQPSPADEKGNDSDGEGESDDPEKKKLQNQLQGAIVIERPNVKWSDVAGLEGAKEALKEAVILPIKFPHLFTGKRTPWRGILLFGPPGTGKSYLAKAVATEANNSTFFSISSSDLVSKWLGESEKLVKNLFQLARENKPSIIFIDEIDSLCGSRSENESEAARRIKTEFLVQMQGVGVDNDGILVLGATNIPWVLDSAIRRRFEKRIYIPLPEPHARAAMFKLHLGTTQNSLTEADFRELGRKTDGYSGADISIIVRDALMQPVRKVQSATHFKKVRGPSRADPNHLVDDLLTPCSPGDPGAIEMTWMDVPGDKLLEPVVSMSDMLRSLSNTKPTVNEHDLLKLKKFTEDFGQEG
modifications: LD655 maleimide dye on the cysteine introduced at position 2 (labelled during the purification)
rate of ATP hydrolysis by VPS4B (malachite green; 0.2 uM enzyme, 2 uM ESCRT-III subunit, 2 mM ATP, 10 min, 37 °C) (ATP/VPS4B·min) (full-length CHMP2A): 12.7
rate of ATP hydrolysis by VPS4B (malachite green; 0.2 uM enzyme, 2 uM ESCRT-III subunit, 2 mM ATP, 10 min, 37 °C) (ATP/VPS4B·min) [1]: 3.4
